What was measured:
Test in all cases: cell-based or functional assay
[1] = target: protease-activated receptor 1 (PAR1), rat, endogenous in hippocampal neurons (rat) (UniProt P26824)
[2] = target: recombinant NR1 subunit in NR1/NR2A and NR1/NR2B NMDA receptors expressed in Xenopus oocytes
[3] = target: alpha-thrombin

protease-activated receptor 1 (PAR1), rat, endogenous in hippocampal neurons (rat), sequence (P26824 46-432): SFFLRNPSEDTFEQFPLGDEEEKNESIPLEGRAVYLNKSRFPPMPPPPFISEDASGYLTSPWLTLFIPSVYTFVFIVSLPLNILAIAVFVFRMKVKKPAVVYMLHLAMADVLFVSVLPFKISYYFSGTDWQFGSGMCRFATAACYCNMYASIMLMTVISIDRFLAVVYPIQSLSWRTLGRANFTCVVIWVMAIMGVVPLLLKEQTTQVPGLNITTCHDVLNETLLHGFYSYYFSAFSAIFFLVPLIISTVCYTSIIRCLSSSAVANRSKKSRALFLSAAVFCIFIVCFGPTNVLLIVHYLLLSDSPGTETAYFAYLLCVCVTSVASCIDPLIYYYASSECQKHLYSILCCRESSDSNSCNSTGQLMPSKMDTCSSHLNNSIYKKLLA

## alpha-thrombin (enzyme)
[1]
  average peak potentiation of NMDA responses in CA1 pyramidal cells at -40 mV in 1.4 mM Mg2+: 1.48 fold
  average peak potentiation of NMDA responses in CA1 pyramidal cells at -70 mV in 1.4 mM Mg2+: 2.1 fold
  peak potentiation of NMDA responses at -70 mV in CA1 pyramidal neurons: 2.07 fold
[2]
  NMDA receptor current response amplitude in oocytes after 300-1000 nM thrombin for 60 minutes: 42%

## hirudin
[3]
  potentiation by thrombin of NMDA responses in the presence of hirudin: 0.96 fold
